Data as given in US20200024330A1.

How the values were obtained:
Assay in all cases: cell-based or functional assay
[1] = target: HIV-1 Env of isolate MGRM-A-008 (HIV-1)
[2] = target: HIV-1 Env of isolate MGRM-A-001 (HIV-1)
[3] = target: HIV-1 Env of isolate MGRM-A-011 (HIV-1)
[4] = target: HIV-1 Env of isolate MGRM-A-013 (HIV-1)
[5] = target: HIV-1 Env of isolate MGRM-A-007 (HIV-1)
[6] = target: HIV-1 Env of isolate MGRM-A-004 (HIV-1)
[7] = target: HIV-1 Env of isolate 94KE105 (HIV-1)
[8] = target: HIV-1 Env of isolate MGRM-A-014 (HIV-1)
[9] = target: HIV-1 Env of isolate MGRM-A-006 (HIV-1)
[10] = target: HIV-1 Env of isolate MGRM-A-002 (HIV-1)
[11] = target: HIV-1 Env of isolate MGRM-F1-006 (HIV-1)
[12] = target: HIV-1 Env of isolate MGRM-F1-004 (HIV-1)
[13] = target: HIV-1 93IN905 envelope protein (Env) on pseudotyped virus (HIV-1 isolate 93IN905)
[14] = target: HIV-1 MGRM-C-026 envelope glycoprotein (Env) (HIV-1)
[15] = target: HIV-1 APV-6 envelope glycoprotein (Env) on pseudovirus (HIV-1)
[16] = target: HIV-1 MGRM-C-028 envelope glycoprotein (Env) (HIV-1)
[17] = target: HIV-1 IAVI-C18 envelope glycoprotein (Env) on pseudovirus (HIV-1)
[18] = target: HIV-1 94UG103 envelope protein (Env) on pseudotyped virus (HIV-1 isolate 94UG103)
[19] = target: HIV-1 APV6 envelope glycoprotein (Env) (HIV-1)
[20] = target: HIV-1 IAVI_C22 envelope protein (Env) on pseudotyped virus (HIV-1 isolate IAVI C22)
[21] = target: HIV-1 92TH021 envelope protein (Env) on pseudotyped virus (HIV-1 isolate 92TH021)

Row | Substance | IC50 (µg/mL), pseudovirus neutralization [3] | IC50 (µg/mL), pseudovirus neutralization [4] | IC50 [5] | IC50 (µg/mL), pseudovirus neutralization [7] | IC50 (µg/mL), pseudovirus neutralization [8] | IC50 (µg/mL), pseudovirus neutralization [11] | IC50 (µg/mL), pseudovirus neutralization [12] | IC50 neutralization [14] | IC50 neutralization [16] | IC50 neutralization [19] | IC50 (µg/mL), pseudovirus neutralization [1] | IC50 (µg/mL), pseudovirus neutralization [2] | IC50 (µg/mL), pseudovirus neutralization [5] | IC50 (µg/mL), pseudovirus neutralization [6] | IC50 (µg/mL), pseudovirus neutralization [9] | IC50 (µg/mL), pseudovirus neutralization [10] | other results
1 | PGV04 (antibody) | 0.09 µg/mL | 0.086 µg/mL | 7.21 mg/L | 2.98 µg/mL | 0.172 µg/mL | > 50 µg/mL | 0.58 µg/mL | – | – | – | – | – | – | – | – | – | IC50 [1]: 0.555 mg/L; IC50 [2]: 6.78 mg/L; IC50 [6]: 0.175 mg/L; IC50 [9]: 0.244 mg/L; IC50 [10]: 0.093 mg/L
2 | 1496_C09 (PG9) (TCN-109) (antibody) | 0.033 µg/mL | 0.122 µg/mL | 1.06 mg/L | 37.9 µg/mL | 1.25 µg/mL | 7.25 µg/mL | 0.175 µg/mL | 0.113 mg/L | 0.121 mg/L | 0.214 mg/L | – | – | – | – | – | – | IC50, pseudovirus neutralization, 1 hour Virus/Ab Incubation [13]: 0.144 mg/L; IC50, pseudovirus neutralization, 18 hour Virus/Ab Incubation [13]: 0.0619 mg/L; IC90 (pseudovirus neutralization) [15]: 1.96 mg/L; IC90 (pseudovirus neutralization) [17]: 0.866 mg/L; IC50, pseudovirus neutralization, 1 hour Virus/Ab Incubation [18]: 0.334 mg/L; IC50, pseudovirus neutralization, 18 hour Virus/Ab Incubation [18]: 0.0942 mg/L; IC50, pseudovirus neutralization, 1 hour Virus/Ab Incubation [20]: 24.9 mg/L; IC50, pseudovirus neutralization, 18 hour Virus/Ab Incubation [20]: 2.11 mg/L; IC50, pseudovirus neutralization, 1 hour Virus/Ab Incubation [21]: 0.0612 mg/L; IC50, pseudovirus neutralization, 18 hour Virus/Ab Incubation [21]: 0.0571 mg/L
3 | PGT-121 (antibody) | > 50 µg/mL | 0.387 µg/mL | – | 0.029 µg/mL | 0.003 µg/mL | – | – | 0.0034 mg/L | 1.19 mg/L | 0.0423 mg/L | > 50 µg/mL | > 50 µg/mL | > 50 µg/mL | > 50 µg/mL | 0.396 µg/mL | 0.013 µg/mL | –
4 | PGT-122 (antibody) | > 50 µg/mL | 2.47 µg/mL | – | 0.056 µg/mL | 0.007 µg/mL | – | – | 0.0089 mg/L | 2.06 mg/L | 0.0851 mg/L | > 50 µg/mL | > 50 µg/mL | > 50 µg/mL | > 50 µg/mL | > 50 µg/mL | 0.017 µg/mL | –
